Assay [1] has as its target T1, human CD39 (ectonucleoside triphosphate diphosphohydrolase-1) (human, UniProt P49961 1-510).
T1 sequence (looked up): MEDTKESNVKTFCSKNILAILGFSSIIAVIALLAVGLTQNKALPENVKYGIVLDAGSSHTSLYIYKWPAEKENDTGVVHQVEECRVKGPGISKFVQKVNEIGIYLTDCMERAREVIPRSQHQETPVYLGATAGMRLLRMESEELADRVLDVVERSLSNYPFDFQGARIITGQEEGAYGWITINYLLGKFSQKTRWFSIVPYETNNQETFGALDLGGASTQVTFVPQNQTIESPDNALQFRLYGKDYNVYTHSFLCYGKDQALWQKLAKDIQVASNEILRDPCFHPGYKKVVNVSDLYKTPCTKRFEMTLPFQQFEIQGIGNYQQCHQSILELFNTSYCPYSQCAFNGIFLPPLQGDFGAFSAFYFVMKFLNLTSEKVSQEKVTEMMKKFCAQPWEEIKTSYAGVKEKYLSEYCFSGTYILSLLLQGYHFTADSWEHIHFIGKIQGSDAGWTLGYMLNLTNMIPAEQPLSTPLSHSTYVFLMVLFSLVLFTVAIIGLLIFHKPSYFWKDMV
In words: cell-based or functional assay.

Assay [2] concerns the target T2, human CD39 (ectonucleoside triphosphate diphosphohydrolase-1) (human, UniProt P49961 1-510).
T2 chain: T1 sequence (looked up)
In words: flow cytometry; HCC1739BL cells.

For assay [3], the target named is T1, human CD39 (ectonucleoside triphosphate …). Briefly: flow cytometry, serial dilution on HCC1739BL cells, anti-human IgG Fc AF488 secondary. The procedure: FIG. 11. […] Ig39-21 WT, Ig39-21 AF or NP501-BK were serially diluted as indicated and incubated with HCC1739BL cells for 30 minutes at 4° C. Afterwards, cells were stained with secondary antibody (anti-human IgG (Fc specific), Alexa Fluor® 488) for 30 minutes at 4° C. and analyzed by flow cytometry. Human IgG1 isotype control antibody (KLH-hIgG1) was used in parallel.
A general note: In flow cytometry, cells or beads pass a laser one at a time.

Assay [4] shares this target. Briefly: flow cytometry, serial dilution on CHO-hCD39 cells, anti-human IgG Fc AF488 secondary. The procedure: FIG. 10. […] Ig39-21 WT, Ig39-21 AF or NP501-BK (an optimized version of Ig39-21 by production using stably transfected cells) were serially diluted as indicated and incubated with CHO-hCD39 cells for 30 minutes at 4° C. Cells were then stained with secondary antibody (anti-human IgG (Fc specific), Alexa Fluor® 488) for 30 minutes at 4° C. and analyzed by flow cytometry. Human IgG1 isotype control antibody (KLH-hIgG1) was used in parallel.

For assay [5] the target is unchanged. In words: flow cytometry, serial dilution on HCC1739BL cells, 30 min at 4 °C. The procedure: FIG. 1. Affinity of Ig39-21 measured by flow cytometry using human CD39hi human B lymphoblastoid (HCC1739BL) cells. Our fully human anti-CD39 antibody clone Ig39-21 produced by transient transfection was serially diluted as indicated and incubated with HCC1739BL cells for 30 minutes at 4° C., followed by flow cytometric analysis.

The record followed here is US20250059294A1 (PURINOMIA BIOTECH, published 2025).

Several values for one entry are separate records, joined by “and”; a condition that tells them apart may be missing. Identical values can stand only once.

As usually defined, the Kd is a measure of binding affinity in units of concentration. High values mean a looser complex, low ones a tighter complex.

B1: Human/Rabbit chimeric clone 9B6 (antibody, human IgG1, V domains shown)
VH: QSVKEAGGRLVTPGGSLTLTCTVSGFSLSAYGISWVRQAPGKGLEWIGIIYSSGRTYYANWAKGRFTISKTSSTTVDLKMTSLTTEDTAAYFCARSRAGISSGDGFDSWGPGTLVTVSS
VL: ALVMTQTPSSVSAAVGGTVTINCQASQNIYSNLAWYQQKPGQRPQLLIYRASTLASGVPSRFKGSASGTEYTLTISGVQCDDAATYYCQQGFDSSNIDNTFGGGTEVVVT
On to B1, for which the “ADCC Luc-reporter assay, HCC1739BL target cells, EC50” value in assay [1] worked out at 0.022 µg/mL.

B2: Human/Rabbit chimeric clone 9C10 (antibody, V domains shown)
VH: QSVEESGGRLVTPGTPLTLTCTVSGFSLSSYAMSWVRQAPGKGLEYIGIISSSGSTYYASWAKGRFTISKTSTTVDLKISSPTTEDTATYFCARDRVIYSIGPYYFNLWGPGTLVTVSS
VL: AYDMTQTPSSVSATVGGTVTINCQASEIIYSNLAWYQQKPGQPPKLLIYGASTLASGVPSRFKGSGSGTEYTLTISDLQCDDAATYYCQQSFSSNNVGNIFGGGTEVVVK
B2 displayed a Kd in assay [2] of 2950 pM.

B3: Ig39-21 WT (antibody, human IgG1, kappa, V domains shown)
VH: EVQLVESGGGVVRPGGSLRLSCAASGFTFSSYAMHWVRQAPGKGLEWVAVISYDVSNKYYADSVKGRFTISRDNSKNTLYLQMNSLRAEDTAVYYCARSYYYYYGMDVWGQGTTVTVSS
VL: DVVMTQSPSSLSASVGDRVTITCRASQSISRYLAWYQQKPGQAPRLLIYDASNRATGIPVRFSGSGSGTDFTLTISRLEPEDFAVYYCQQFGRSPRTFGQGTRLEIKR
notes: also called fully human anti-CD39 antibody clone Ig39-21
In turn, B3 registered a Kd in assay [3] of 290 pM. The molecule also registered an equilibrium dissociation constant (Kd) in assay [4] of 520 pM. In assay [5], this molecule returned an equilibrium dissociation constant (Kd) of 412 pM. Also, in assay [1], the “ADCC Luc-reporter assay (Jurkat hCD16a-158V effector cells), HCC1739BL target cells, EC50” value is 0.014 µg/mL; the “ADCC Luc-reporter assay, HCC1739BL target cells, EC50” value was 0.014 µg/mL and 0.02 µg/mL; the “CDC assay (10% Normal Human Serum), Raji-hCD39hi target cells, EC50” value (shortened to “CDC assay (10% Normal Human Serum)”) was 0.38 µg/mL.

B4: NP501-BK (antibody, V domains shown)
VH: B3 VH
VL: B3 VL
modifications: decreased fucosylation by optimized production process
notes: 'An optimized version of Ig39-21 by production using stably transfected cells' (CHO); also called Optimized Ig39-21
B4 displayed a dissociation constant (Kd) in assay [3] of 160 pM. In addition, binding in assay [4] was put at a Kd of 480 pM. For the same molecule, in assay [1], the “ADCC Luc-reporter assay, HCC1739BL target cells, EC50” value was 0.0017 µg/mL and the “CDC assay (10% Normal Human Serum)” value turned out to be 0.31 µg/mL.

B5: Ig39-21 AF (antibody, human IgG1, kappa, V domains shown)
VH: B3 VH
VL: B3 VL
modifications: afucosylated glycan (produced in presence of fucosylation inhibitor 2-Deoxy-2-fluoro-L-fucose)
notes: also called afucosylated Ig39-21
The molecule B5 had a Kd in assay [3] of 350 pM. In assay [4], binding was put at a Kd of 510 pM. For the same molecule, in assay [1], the “ADCC Luc-reporter assay, HCC1739BL target cells, EC50” value was 0.00086 µg/mL and 0.0008 µg/mL; the “CDC assay (10% Normal Human Serum)” value amounted to 0.25 µg/mL.

B6: Human/Rabbit chimeric clone 8D8 (antibody, V domains shown)
VH: QSVEESGGRLVTPGTPLTLTCTVSGFSLSSYAISWVRQAPGKGLEYIAIINSYGTTYYASWAKGRVTISKTSSTVDLKISSPTTEDTATYFCARGDSYGSGVGLGLWGPGTLVTVSS
VL: AYDMTQTPASVEVAVGGTVTIKCQASQNIYSNLAWYQQKPGQRPKLLIYRASSLASGVPSRFSGSGSGTEFTLTISGVQCDDAATYYCQQGFSSNNVDNTFGGGTEVVVK
B6 yielded a dissociation constant Kd in assay [2] of 1100 pM.

B7: Human/Rabbit chimeric clone 8C11 (antibody, V domains shown)
VH: QSVEESGGRLVTPGTHLTLTCTVSGFSLSKSIISWVRQAPGKGLEYIGIIGSSGSTYYANWAKGRFTISKTSSTTVDLRMTSLTPEDTATYFCARGLLYSGNKSWGPGTLVTVSS
VL: AIDMTQTPSSVSAAVGGTVTINCQSSQSVLLNNQLSWFQQKPGQPPKLLIYDASTLESGVPSRFTGSGSGTQFTLTISDLECDDAATYYCLGGYSGNLYAFGGGTEVLVK
Consider B7, for which binding in assay [2] was characterised by a dissociation constant (Kd) of 1680 pM.
